From the supplement of paper PMC9112550, “Optimization of the antimicrobial peptide Bac7 by deep mutational scanning” (BMC Biology, 2022)

system: Escherichia coli TOP10; test: shrunken log2 fold change of peptide-encoding DNA abundance (4.5 h post-induction vs induction); higher = less antimicrobial activity (less host growth inhibition); conditions: time post-induction: 4.5 h; library: site-saturation at positions 5, 18, 19, 20
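Also: peptides expressed intracellularly from a pBAD plasmid library in pooled LB shake-flask culture, induced with 0.3% L-arabinose, DNA abundance read by NGS, three biological replicates, DESeq2 with apeglm shrinkage.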

Row | Sequence | shrunken log2 fold change
1 | RRIRTRPPRLPRPRPRPFSAPRP | 0.0716
2 | RRIRDRPPRLPRPRPRPPHNPRP | -0.103
3 | RRIRQRPPRLPRPRPRPSRRPRP | 0.0103
4 | RRIRERPPRLPRPRPRPKTTPRP | -0.107
5 | RRIRVRPPRLPRPRPRPPTCPRP | 0.141
6 | RRIRSRPPRLPRPRPRPIDTPRP | -0.117
7 | RRIRKRPPRLPRPRPRPSDTPRP | 0.322
8 | RRIRRRPPRLPRPRPRPKTIPRP | 0.0447
9 | RRIRDRPPRLPRPRPRPDIRPRP | -0.00151
10 | RRIRHRPPRLPRPRPRPKAMPRP | -0.0705
11 | RRIRDRPPRLPRPRPRPFNWPRP | 0.0464
12 | RRIRIRPPRLPRPRPRPHACPRP | -1.14
13 | RRIRSRPPRLPRPRPRPPCSPRP | 0.198
14 | RRIRERPPRLPRPRPRPNFMPRP | -0.178
15 | RRIRQRPPRLPRPRPRPTNRPRP | 0.0327
16 | RRIRQRPPRLPRPRPRPKAPPRP | 0.653
17 | RRIRKRPPRLPRPRPRPDCCPRP | 0.435
18 | RRIRFRPPRLPRPRPRPPQCPRP | 0.237
19 | RRIRCRPPRLPRPRPRPLPNPRP | -0.0586
20 | RRIRTRPPRLPRPRPRPTFFPRP | -0.11
21 | RRIRMRPPRLPRPRPRPPKHPRP | 0.829
22 | RRIRARPPRLPRPRPRPMPYPRP | -0.105
23 | RRIRIRPPRLPRPRPRPVDRPRP | 0.0811
24 | RRIRRRPPRLPRPRPRPKMSPRP | 0.274
25 | RRIRVRPPRLPRPRPRPMEHPRP | 0.0534

Row | Sequence | shrunken log2 fold change
26 | RRIRHRPPRLPRPRPRPKSHPRP | 0.77
27 | RRIRCRPPRLPRPRPRPLYKPRP | -0.275
28 | RRIRIRPPRLPRPRPRPTFDPRP | -0.188
29 | RRIRHRPPRLPRPRPRPMVDPRP | -0.222
30 | RRIRQRPPRLPRPRPRPYYPPRP | 0.0338
31 | RRIRYRPPRLPRPRPRPFAEPRP | -0.509
32 | RRIRVRPPRLPRPRPRPTMNPRP | -0.353
33 | RRIRFRPPRLPRPRPRPSIVPRP | -0.663
34 | RRIRYRPPRLPRPRPRPRFKPRP | -0.302
35 | RRIRCRPPRLPRPRPRPMCAPRP | 0.0886
36 | RRIRKRPPRLPRPRPRPQYSPRP | -0.906
37 | RRIRHRPPRLPRPRPRPAHPPRP | 0.175
38 | RRIRYRPPRLPRPRPRPSDMPRP | -0.00973
39 | RRIRGRPPRLPRPRPRPREDPRP | 1.47
40 | RRIRGRPPRLPRPRPRPSCCPRP | 0.722
41 | RRIRKRPPRLPRPRPRPYEYPRP | 0.0169
42 | RRIRTRPPRLPRPRPRPGTSPRP | -0.043
43 | RRIRIRPPRLPRPRPRPSYKPRP | -1.42
44 | RRIRARPPRLPRPRPRPRTYPRP | -0.126
45 | RRIRPRPPRLPRPRPRPMLAPRP | 0.281
46 | RRIRERPPRLPRPRPRPRHTPRP | -0.187
47 | RRIRMRPPRLPRPRPRPAQCPRP | 0.0203
48 | RRIRMRPPRLPRPRPRPEYAPRP | 0.0325
49 | RRIRVRPPRLPRPRPRPPMGPRP | 0.254
50 | RRIRQRPPRLPRPRPRPDAYPRP | -0.228

Row | Sequence | shrunken log2 fold change
51 | RRIRVRPPRLPRPRPRPGNNPRP | -0.249
52 | RRIRGRPPRLPRPRPRPQWNPRP | 0.0405
53 | RRIRCRPPRLPRPRPRPGTHPRP | -0.243
54 | RRIRRRPPRLPRPRPRPDGFPRP | 0.14
55 | RRIRLRPPRLPRPRPRPATHPRP | 0.253
56 | RRIRYRPPRLPRPRPRPWLKPRP | -0.0198
57 | RRIRIRPPRLPRPRPRPQRTPRP | 0.0834
58 | RRIRQRPPRLPRPRPRPCRWPRP | -0.0062
59 | RRIRFRPPRLPRPRPRPCMKPRP | 0.068
60 | RRIRFRPPRLPRPRPRPDFDPRP | -0.15
61 | RRIRNRPPRLPRPRPRPNWQPRP | -0.123
62 | RRIRCRPPRLPRPRPRPFMCPRP | -0.0735
63 | RRIRIRPPRLPRPRPRPMKNPRP | -0.359
64 | RRIRPRPPRLPRPRPRPKGQPRP | 0.205
65 | RRIRCRPPRLPRPRPRPFDHPRP | 0.0529
66 | RRIRIRPPRLPRPRPRPDSIPRP | -0.00884
67 | RRIRGRPPRLPRPRPRPRMPPRP | 0.605
68 | RRIRIRPPRLPRPRPRPEFGPRP | 0.129
69 | RRIRVRPPRLPRPRPRPEDHPRP | -0.021
70 | RRIRFRPPRLPRPRPRPNPAPRP | 0.0261
71 | RRIRGRPPRLPRPRPRPRTMPRP | 0.539
72 | RRIRHRPPRLPRPRPRPVPVPRP | 0.0601
73 | RRIRDRPPRLPRPRPRPAQSPRP | 0.216
74 | RRIRCRPPRLPRPRPRPACLPRP | -0.111
75 | RRIRDRPPRLPRPRPRPWADPRP | -0.00486

Row | Sequence | shrunken log2 fold change
76 | RRIRRRPPRLPRPRPRPVVMPRP | -0.0785
77 | RRIRERPPRLPRPRPRPTATPRP | 0.259
78 | RRIRMRPPRLPRPRPRPMDQPRP | -0.0516
79 | RRIRTRPPRLPRPRPRPQDPPRP | 0.167
80 | RRIRWRPPRLPRPRPRPYWTPRP | -0.175
81 | RRIRPRPPRLPRPRPRPWTDPRP | 0.0245
82 | RRIRYRPPRLPRPRPRPIANPRP | -0.0103
83 | RRIRLRPPRLPRPRPRPEERPRP | 0.231
84 | RRIRTRPPRLPRPRPRPLNQPRP | -0.417
85 | RRIRDRPPRLPRPRPRPPIVPRP | -0.161
86 | RRIRFRPPRLPRPRPRPQMRPRP | 0.495
87 | RRIRARPPRLPRPRPRPGNWPRP | 0.346
88 | RRIRQRPPRLPRPRPRPHHHPRP | -0.403
89 | RRIRFRPPRLPRPRPRPYDEPRP | -0.526
90 | RRIRVRPPRLPRPRPRPPYRPRP | -0.0303
91 | RRIRKRPPRLPRPRPRPCIKPRP | 0.193
92 | RRIRQRPPRLPRPRPRPLFKPRP | -0.387
93 | RRIRQRPPRLPRPRPRPVGYPRP | 0.101
94 | RRIRTRPPRLPRPRPRPSEMPRP | -0.00622
95 | RRIRFRPPRLPRPRPRPAAVPRP | 0.169
96 | RRIRRRPPRLPRPRPRPTNWPRP | 0.37
97 | RRIRNRPPRLPRPRPRPDPCPRP | -0.145
98 | RRIRYRPPRLPRPRPRPMNEPRP | -0.103
99 | RRIRNRPPRLPRPRPRPCPAPRP | 0.203
100 | RRIRYRPPRLPRPRPRPYHRPRP | -0.236

Row | Sequence | shrunken log2 fold change
101 | RRIRMRPPRLPRPRPRPQISPRP | -0.28
102 | RRIRCRPPRLPRPRPRPITQPRP | -0.0791
103 | RRIRHRPPRLPRPRPRPFDTPRP | -0.178
104 | RRIRYRPPRLPRPRPRPWTEPRP | -0.0689
105 | RRIRLRPPRLPRPRPRPKQRPRP | 0.225
106 | RRIRARPPRLPRPRPRPQIAPRP | 0.499
107 | RRIRNRPPRLPRPRPRPQGIPRP | -0.216
108 | RRIRIRPPRLPRPRPRPIGSPRP | -0.0175
109 | RRIRWRPPRLPRPRPRPEGAPRP | 1.13
110 | RRIRLRPPRLPRPRPRPCQNPRP | -0.0404
111 | RRIRVRPPRLPRPRPRPTFSPRP | -0.3
112 | RRIRCRPPRLPRPRPRPNFHPRP | -0.259
113 | RRIRGRPPRLPRPRPRPEDEPRP | 0.0631
114 | RRIRCRPPRLPRPRPRPKKGPRP | -0.129
115 | RRIRGRPPRLPRPRPRPVRNPRP | 0.308
116 | RRIRWRPPRLPRPRPRPYHEPRP | -0.123
117 | RRIRPRPPRLPRPRPRPLFTPRP | -0.385
118 | RRIRLRPPRLPRPRPRPAAKPRP | 0.602
119 | RRIRKRPPRLPRPRPRPIHLPRP | -0.0911
120 | RRIRIRPPRLPRPRPRPYHSPRP | -0.00112
121 | RRIRQRPPRLPRPRPRPVNCPRP | -0.0672
122 | RRIRMRPPRLPRPRPRPTHPPRP | 0.564
123 | RRIRARPPRLPRPRPRPYGHPRP | -0.095
124 | RRIRWRPPRLPRPRPRPEQKPRP | 0.0146
125 | RRIRVRPPRLPRPRPRPYVRPRP | -0.492

Row | Sequence | shrunken log2 fold change
126 | RRIRLRPPRLPRPRPRPRATPRP | 0.228
127 | RRIRGRPPRLPRPRPRPMYVPRP | -0.0802
128 | RRIRYRPPRLPRPRPRPSIQPRP | -0.594
129 | RRIRIRPPRLPRPRPRPAICPRP | -0.15
130 | RRIRKRPPRLPRPRPRPYCCPRP | -0.237
131 | RRIRDRPPRLPRPRPRPVISPRP | 0.277
132 | RRIRRRPPRLPRPRPRPPKIPRP | 0.403
133 | RRIRGRPPRLPRPRPRPGRYPRP | -0.378
134 | RRIRSRPPRLPRPRPRPDPYPRP | -0.312
135 | RRIRQRPPRLPRPRPRPLDTPRP | -0.144
136 | RRIRPRPPRLPRPRPRPEGQPRP | 0.798
137 | RRIRFRPPRLPRPRPRPGCHPRP | -0.141
138 | RRIRLRPPRLPRPRPRPPMCPRP | 0.202
139 | RRIRMRPPRLPRPRPRPGDSPRP | 0.557
140 | RRIRVRPPRLPRPRPRPSMGPRP | -0.399
141 | RRIRYRPPRLPRPRPRPKAIPRP | -0.497
142 | RRIRNRPPRLPRPRPRPVQEPRP | -0.0428
143 | RRIRNRPPRLPRPRPRPPSVPRP | 0.0886
144 | RRIRYRPPRLPRPRPRPKNIPRP | -0.127
145 | RRIRSRPPRLPRPRPRPFCIPRP | -0.316
146 | RRIRFRPPRLPRPRPRPFVVPRP | -0.219
147 | RRIRKRPPRLPRPRPRPYDCPRP | -0.171
148 | RRIRLRPPRLPRPRPRPDELPRP | 0.00705
149 | RRIRWRPPRLPRPRPRPHWTPRP | -0.158
150 | RRIRDRPPRLPRPRPRPLYTPRP | -0.181
